Experimental data as given in patent publication US20190309059A1 (SHANGHAI PHARMAEXPLORER, published 2019).

B1: 28A2E11 (lead antibody, mouse hybridoma) (antibody, V domains shown)
VH: EVQLQQSGAELVKPGASVKLSCTASGFNIKDYYMHWVKQRTEQGLEWIGRIDPEDGETKYAPKFHDKATLTADTSSNTAYLQFSSLASEDTAVYYCTRYDYYGPFAYWGQGTLVTVSA
VL: QAVVTQESVLTTSPGETVTLTCRSSTGAVTTSNYANWVQEKPDHLFTGLIGGTNNRAPGVPARFSGSLIGDKAALTITGAQTEDEAIYFCALWYINHFIFGSGTKVTVL
notes: Mouse monoclonal antibody purified from hybridoma supernatant on Protein G
B2: 29D9H8 (lead antibody, mouse hybridoma) (antibody, V domains shown)
VH: QVQLQQSGAELVRPGASVTLSCKASGYTFTDYEMHWVKQTPVHGLEWIGGIDPETGGTASNQKFKGKAILTADKSSSTAYMELRSLTSEDSAVYYCTSGDYFGGGPFAYWGQGTLVTVSA
VL: DIKMTQSPSSMYASLGERVTITCKASQDINSYLSWFQQKPGKSPKTLIYRANRLVDGVPSRFSGSGSGQDYSLTISSLDYEDMGIYYCLQYDEFPYTFGGGTKLEIK
notes: as for B1

Experiments:
[1] = molecular target: his-labeled human IL-13 (immunogen A) (human) (UniProt P35225); experiment: cell-based or functional assay
[2] = molecular target: cynomolgus IL-13 (purchased from sino biological) (cynomolgus) (UniProt Q0PW92); experiment: ELISA, cynomolgus IL-13; antibody at 0.53 nM
[3] = molecular target: cynomolgus IL-13 (purchased from sino biological) (cynomolgus) (UniProt Q0PW92); experiment: ELISA, cynomolgus IL-13; antibody at 2.67 nM
[4] = molecular target: cynomolgus IL-13 (purchased from sino biological) (cynomolgus) (UniProt Q0PW92); experiment: ELISA, cynomolgus IL-13; antibody at 0.004 nM
[5] = molecular target: cynomolgus IL-13 (purchased from sino biological) (cynomolgus) (UniProt Q0PW92); experiment: ELISA, cynomolgus IL-13; antibody at 0.021 nM
[6] = molecular target: his-labeled human IL-13 (immunogen A) (human) (UniProt P35225); experiment: ELISA, biotin-immunogen A; antibody at 0.11 nM
[7] = molecular target: his-labeled human IL-13 (immunogen A) (human) (UniProt P35225); experiment: FACS blocking, biotin-IL-13 on IL-13Ra2 HEK293 cells; antibody at 0.01 nM
[8] = molecular target: his-labeled human IL-13 (immunogen A) (human) (UniProt P35225); experiment: FACS blocking, biotin-IL-13 on IL-13Ra2 HEK293 cells; antibody at 0.05 nM
[9] = molecular target: his-labeled human IL-13 (immunogen A) (human) (UniProt P35225); experiment: FACS blocking, biotin-IL-13 on IL-13Ra2 HEK293 cells; antibody at 0.27 nM
[10] = molecular target: his-labeled human IL-13 (immunogen A) (human) (UniProt P35225); experiment: FACS blocking, biotin-IL-13 on IL-13Ra2 HEK293 cells; antibody at 1.33 nM
[11] = molecular target: his-labeled human IL-13 (immunogen A) (human) (UniProt P35225); experiment: FACS blocking, biotin-IL-13 on IL-13Ra2 HEK293 cells; antibody at 6.67 nM
[12] = molecular target: his-labeled human IL-13 (immunogen A) (human) (UniProt P35225); experiment: FACS blocking, biotin-IL-13 on IL-13Ra2 HEK293 cells; antibody at 0.002 nM
[13] = molecular target: his-labeled human IL-13 (immunogen A) (human) (UniProt P35225); experiment: FACS blocking, biotin-IL-13 on IL-13Ra2 HEK293 cells; antibody at 33.33 nM
[14] = molecular target: his-labeled human IL-13 (immunogen A) (human) (UniProt P35225); experiment: FACS blocking, biotin-IL-13 on IL-13Ra2 HEK293 cells; antibody at 166.67 nM
[15] = molecular target: his-labeled human IL-13 (immunogen A) (human) (UniProt P35225); experiment: FACS blocking, biotin-IL-13 on IL-13Ra1/IL-4Ra HEK293 cells; antibody at 0.01 nM
[16] = molecular target: his-labeled human IL-13 (immunogen A) (human) (UniProt P35225); experiment: FACS blocking, biotin-IL-13 on IL-13Ra1/IL-4Ra HEK293 cells; antibody at 0.05 nM
[17] = molecular target: his-labeled human IL-13 (immunogen A) (human) (UniProt P35225); experiment: FACS blocking, biotin-IL-13 on IL-13Ra1/IL-4Ra HEK293 cells; antibody at 0.27 nM
[18] = molecular target: his-labeled human IL-13 (immunogen A) (human) (UniProt P35225); experiment: FACS blocking, biotin-IL-13 on IL-13Ra1/IL-4Ra HEK293 cells; antibody at 1.33 nM
[19] = molecular target: his-labeled human IL-13 (immunogen A) (human) (UniProt P35225); experiment: FACS blocking, biotin-IL-13 on IL-13Ra1/IL-4Ra HEK293 cells; antibody at 6.67 nM
[20] = molecular target: his-labeled human IL-13 (immunogen A) (human) (UniProt P35225); experiment: FACS blocking, biotin-IL-13 on IL-13Ra1/IL-4Ra HEK293 cells; antibody at 0.002 nM
[21] = molecular target: his-labeled human IL-13 (immunogen A) (human) (UniProt P35225); experiment: FACS blocking, biotin-IL-13 on IL-13Ra1/IL-4Ra HEK293 cells; antibody at 33.33 nM
[22] = molecular target: his-labeled human IL-13 (immunogen A) (human) (UniProt P35225); experiment: FACS blocking, biotin-IL-13 on IL-13Ra1/IL-4Ra HEK293 cells; antibody at 166.67 nM

cynomolgus IL-13 (purchased from sino biological) (cynomolgus), sequence (Q0PW92 entry or part of it): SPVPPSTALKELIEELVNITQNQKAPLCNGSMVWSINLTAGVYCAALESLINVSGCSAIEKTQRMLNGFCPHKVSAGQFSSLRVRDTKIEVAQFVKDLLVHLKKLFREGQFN

Binder	TARC (pg/mL), A549 cells + IL-13 5 ng/mL + TNFα; antibody at 0.001 nM [1]	TARC (pg/mL), A549 cells + IL-13 5 ng/mL + TNFα; antibody at 0.004 nM [1]	TARC (pg/mL), A549 cells + IL-13 5 ng/mL + TNFα; antibody at 0.021 nM [1]	TARC (pg/mL), A549 cells + IL-13 5 ng/mL + TNFα; antibody at 0.11 nM [1]	TARC (pg/mL), A549 cells + IL-13 5 ng/mL + TNFα; antibody at 0.5 nM [1]	TARC (pg/mL), A549 cells + IL-13 5 ng/mL + TNFα; antibody at 2.7 nM [1]	TARC (pg/mL), A549 cells + IL-13 5 ng/mL + TNFα; antibody at 13.3 nM [1]	TARC (pg/mL), A549 cells + IL-13 5 ng/mL + TNFα; antibody at 66.7 nM [1]	OD450 nm [2]	OD450 nm [3]	OD450 nm [4]	OD450 nm [5]	OD450 nm [6]	mean fluorescence intensity [7]	mean fluorescence intensity [8]	mean fluorescence intensity [9]	mean fluorescence intensity [10]	mean fluorescence intensity [11]	mean fluorescence intensity [12]	mean fluorescence intensity [13]	other results
B1	1850 pg/mL	1700 pg/mL	1590 pg/mL	1360 pg/mL	601 pg/mL	118 pg/mL	51 pg/mL	56 pg/mL	0.83	1.35	0.08	0.14	0.74	79.7	76.9	72.1	60.1	55.9	76.5	56.6	mean fluorescence intensity [14]: 53.3; mean fluorescence intensity [15]: 76.2; mean fluorescence intensity [16]: 71.5; mean fluorescence intensity [17]: 64.2; mean fluorescence intensity [18]: 39.6; mean fluorescence intensity [19]: 28.8; mean fluorescence intensity [20]: 74.7; mean fluorescence intensity [21]: 27.2; mean fluorescence intensity [22]: 24.6
B2	1910 pg/mL	1720 pg/mL	1600 pg/mL	1300 pg/mL	653 pg/mL	146 pg/mL	53 pg/mL	42 pg/mL	2.05	2.36	0.19	0.56	0.85	74.6	67.6	45.4	32.3	23.6	76.3	21.5	mean fluorescence intensity [14]: 20.5; mean fluorescence intensity [15]: 74.2; mean fluorescence intensity [16]: 68.5; mean fluorescence intensity [17]: 45.3; mean fluorescence intensity [18]: 24; mean fluorescence intensity [19]: 16.6; mean fluorescence intensity [20]: 75.3; mean fluorescence intensity [21]: 15.9; mean fluorescence intensity [22]: 14.8
